Test results reported in patent publication US20230242635A1 (published 2023).

Legend:
[1] = target: T1, canine FcRn complex (FcRn-α subunit and β-microglobulin), biotin labeled by BirA, captured on SA chip … (canine, UniProt A0A8I3PFR8 25-296, biotin label by BirA enzymatic biotinylation (BAP tag)); assay: SPR (Biacore), biotinylated FcRn captured on SA chip, IgG flowed, pH 6, 15 C
[2] = target: T1, canine FcRn complex (FcRn-α subunit and …); assay: SPR (Biacore), biotinylated FcRn captured on SA chip, IgG flowed, pH 7.4, 15 C

T1 sequence (A0A8I3PFR8 entry or part of it, one chain of several): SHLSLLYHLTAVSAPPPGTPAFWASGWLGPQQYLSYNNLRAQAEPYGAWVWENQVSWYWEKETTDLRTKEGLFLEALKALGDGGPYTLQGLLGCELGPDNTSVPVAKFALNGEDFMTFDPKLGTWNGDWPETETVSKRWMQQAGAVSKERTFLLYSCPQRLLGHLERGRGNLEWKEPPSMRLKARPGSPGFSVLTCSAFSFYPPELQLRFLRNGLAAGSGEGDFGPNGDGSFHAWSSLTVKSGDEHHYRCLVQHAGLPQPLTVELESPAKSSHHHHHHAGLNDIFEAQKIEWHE

Binder	Kd [1]	Kd [2]
caninized anti-IL31 antibody 34D03 (mAb1), canine IgGB, N434M (antibody) chain 1: EVQLVESGGDLVKPGGSLRLSCVASGFTFSNYGMSWVRQAPGKGLQWVATISYGGSYTYYPDNIKGRFTISRDNAKNTLYLQMNSLRAEDTAMYYCVRGYGYDTMDYWGQGTLVTVSSASTTAPSVFPLAPSCGSTSGSTVALACLVSGYFPEPVTVSWNSGSLTSGVHTFPSVLQSSGLYSLSSMVTVPSSRWPSETFTCNVAHPASKTKVDKPVPKRENGRVPRPPDCPKCPAPEMLGGPSVFIFPPKPKDTLLIARTPEVTCVVVDLDPEDPEVQISWFVDGKQMQTAKTQPREEQFNGTYRVVSVLPIGHQDWLKGKQFTCKVNNKALPSPIERTISKARGQAHQPSVYVLPPSREELSKNTVSLTCLIKDFFPPDIDVEWQSNGQQEPESKYRTTPPQLDEDGSYFLYSKLSVDKSRWQRGDTFICAVMHEALHMHYTQESLSHSPGK chain 2: EIVMTQSPASLSLSQEEKVTITCKASQSVSFAGTGLMHWYQQKPGQAPKLLIYRASNLEAGVPSRFSGSGSGTDFSFTISSLEPEDVAVYYCQQSREYPWTFGQGTKLEIK	14.2 nM	146000 nM
caninized anti-IL31 antibody 34D03 (mAb1), canine IgGB, N434V (antibody) chain 1: EVQLVESGGDLVKPGGSLRLSCVASGFTFSNYGMSWVRQAPGKGLQWVATISYGGSYTYYPDNIKGRFTISRDNAKNTLYLQMNSLRAEDTAMYYCVRGYGYDTMDYWGQGTLVTVSSASTTAPSVFPLAPSCGSTSGSTVALACLVSGYFPEPVTVSWNSGSLTSGVHTFPSVLQSSGLYSLSSMVTVPSSRWPSETFTCNVAHPASKTKVDKPVPKRENGRVPRPPDCPKCPAPEMLGGPSVFIFPPKPKDTLLIARTPEVTCVVVDLDPEDPEVQISWFVDGKQMQTAKTQPREEQFNGTYRVVSVLPIGHQDWLKGKQFTCKVNNKALPSPIERTISKARGQAHQPSVYVLPPSREELSKNTVSLTCLIKDFFPPDIDVEWQSNGQQEPESKYRTTPPQLDEDGSYFLYSKLSVDKSRWQRGDTFICAVMHEALHVHYTQESLSHSPGK chain 2: EIVMTQSPASLSLSQEEKVTITCKASQSVSFAGTGLMHWYQQKPGQAPKLLIYRASNLEAGVPSRFSGSGSGTDFSFTISSLEPEDVAVYYCQQSREYPWTFGQGTKLEIK	6.16 nM	2750 nM
caninized anti-IL31 antibody 34D03 (mAb1), canine IgGB, N434T (antibody) chain 1: EVQLVESGGDLVKPGGSLRLSCVASGFTFSNYGMSWVRQAPGKGLQWVATISYGGSYTYYPDNIKGRFTISRDNAKNTLYLQMNSLRAEDTAMYYCVRGYGYDTMDYWGQGTLVTVSSASTTAPSVFPLAPSCGSTSGSTVALACLVSGYFPEPVTVSWNSGSLTSGVHTFPSVLQSSGLYSLSSMVTVPSSRWPSETFTCNVAHPASKTKVDKPVPKRENGRVPRPPDCPKCPAPEMLGGPSVFIFPPKPKDTLLIARTPEVTCVVVDLDPEDPEVQISWFVDGKQMQTAKTQPREEQFNGTYRVVSVLPIGHQDWLKGKQFTCKVNNKALPSPIERTISKARGQAHQPSVYVLPPSREELSKNTVSLTCLIKDFFPPDIDVEWQSNGQQEPESKYRTTPPQLDEDGSYFLYSKLSVDKSRWQRGDTFICAVMHEALHTHYTQESLSHSPGK chain 2: EIVMTQSPASLSLSQEEKVTITCKASQSVSFAGTGLMHWYQQKPGQAPKLLIYRASNLEAGVPSRFSGSGSGTDFSFTISSLEPEDVAVYYCQQSREYPWTFGQGTKLEIK	34.2 nM	554 nM
caninized anti-IL31 antibody 34D03 (mAb1), canine IgGB, N434S (antibody) chain 1: EVQLVESGGDLVKPGGSLRLSCVASGFTFSNYGMSWVRQAPGKGLQWVATISYGGSYTYYPDNIKGRFTISRDNAKNTLYLQMNSLRAEDTAMYYCVRGYGYDTMDYWGQGTLVTVSSASTTAPSVFPLAPSCGSTSGSTVALACLVSGYFPEPVTVSWNSGSLTSGVHTFPSVLQSSGLYSLSSMVTVPSSRWPSETFTCNVAHPASKTKVDKPVPKRENGRVPRPPDCPKCPAPEMLGGPSVFIFPPKPKDTLLIARTPEVTCVVVDLDPEDPEVQISWFVDGKQMQTAKTQPREEQFNGTYRVVSVLPIGHQDWLKGKQFTCKVNNKALPSPIERTISKARGQAHQPSVYVLPPSREELSKNTVSLTCLIKDFFPPDIDVEWQSNGQQEPESKYRTTPPQLDEDGSYFLYSKLSVDKSRWQRGDTFICAVMHEALHSHYTQESLSHSPGK chain 2: EIVMTQSPASLSLSQEEKVTITCKASQSVSFAGTGLMHWYQQKPGQAPKLLIYRASNLEAGVPSRFSGSGSGTDFSFTISSLEPEDVAVYYCQQSREYPWTFGQGTKLEIK	20.2 nM	6960 nM

Now those with a lower Kd [1], led by results:

Kd [1]	Kd [2]	Binder
1.98 nM	25300 nM	caninized anti-IL31 antibody 34D03 (mAb1), canine IgGB, N434W (antibody) chain 1: EVQLVESGGDLVKPGGSLRLSCVASGFTFSNYGMSWVRQAPGKGLQWVATISYGGSYTYYPDNIKGRFTISRDNAKNTLYLQMNSLRAEDTAMYYCVRGYGYDTMDYWGQGTLVTVSSASTTAPSVFPLAPSCGSTSGSTVALACLVSGYFPEPVTVSWNSGSLTSGVHTFPSVLQSSGLYSLSSMVTVPSSRWPSETFTCNVAHPASKTKVDKPVPKRENGRVPRPPDCPKCPAPEMLGGPSVFIFPPKPKDTLLIARTPEVTCVVVDLDPEDPEVQISWFVDGKQMQTAKTQPREEQFNGTYRVVSVLPIGHQDWLKGKQFTCKVNNKALPSPIERTISKARGQAHQPSVYVLPPSREELSKNTVSLTCLIKDFFPPDIDVEWQSNGQQEPESKYRTTPPQLDEDGSYFLYSKLSVDKSRWQRGDTFICAVMHEALHWHYTQESLSHSPGK chain 2: EIVMTQSPASLSLSQEEKVTITCKASQSVSFAGTGLMHWYQQKPGQAPKLLIYRASNLEAGVPSRFSGSGSGTDFSFTISSLEPEDVAVYYCQQSREYPWTFGQGTKLEIK
0.906 nM	3.11 nM	caninized anti-IL31 antibody 34D03 (mAb1), canine IgGB, N434R (antibody) chain 1: EVQLVESGGDLVKPGGSLRLSCVASGFTFSNYGMSWVRQAPGKGLQWVATISYGGSYTYYPDNIKGRFTISRDNAKNTLYLQMNSLRAEDTAMYYCVRGYGYDTMDYWGQGTLVTVSSASTTAPSVFPLAPSCGSTSGSTVALACLVSGYFPEPVTVSWNSGSLTSGVHTFPSVLQSSGLYSLSSMVTVPSSRWPSETFTCNVAHPASKTKVDKPVPKRENGRVPRPPDCPKCPAPEMLGGPSVFIFPPKPKDTLLIARTPEVTCVVVDLDPEDPEVQISWFVDGKQMQTAKTQPREEQFNGTYRVVSVLPIGHQDWLKGKQFTCKVNNKALPSPIERTISKARGQAHQPSVYVLPPSREELSKNTVSLTCLIKDFFPPDIDVEWQSNGQQEPESKYRTTPPQLDEDGSYFLYSKLSVDKSRWQRGDTFICAVMHEALHRHYTQESLSHSPGK chain 2: EIVMTQSPASLSLSQEEKVTITCKASQSVSFAGTGLMHWYQQKPGQAPKLLIYRASNLEAGVPSRFSGSGSGTDFSFTISSLEPEDVAVYYCQQSREYPWTFGQGTKLEIK
5.91 nM	21.8 nM	caninized anti-IL31 antibody 34D03 (mAb1), canine IgGB, N434Q (antibody) chain 1: EVQLVESGGDLVKPGGSLRLSCVASGFTFSNYGMSWVRQAPGKGLQWVATISYGGSYTYYPDNIKGRFTISRDNAKNTLYLQMNSLRAEDTAMYYCVRGYGYDTMDYWGQGTLVTVSSASTTAPSVFPLAPSCGSTSGSTVALACLVSGYFPEPVTVSWNSGSLTSGVHTFPSVLQSSGLYSLSSMVTVPSSRWPSETFTCNVAHPASKTKVDKPVPKRENGRVPRPPDCPKCPAPEMLGGPSVFIFPPKPKDTLLIARTPEVTCVVVDLDPEDPEVQISWFVDGKQMQTAKTQPREEQFNGTYRVVSVLPIGHQDWLKGKQFTCKVNNKALPSPIERTISKARGQAHQPSVYVLPPSREELSKNTVSLTCLIKDFFPPDIDVEWQSNGQQEPESKYRTTPPQLDEDGSYFLYSKLSVDKSRWQRGDTFICAVMHEALHQHYTQESLSHSPGK chain 2: EIVMTQSPASLSLSQEEKVTITCKASQSVSFAGTGLMHWYQQKPGQAPKLLIYRASNLEAGVPSRFSGSGSGTDFSFTISSLEPEDVAVYYCQQSREYPWTFGQGTKLEIK
